The values that follow come from PMC5665596.

One may read the stoichiometry N as the number of molecules, sites or subunits per partner or assembly.

One test has as its target MotS (B. subtilis). The test is described as follows: high-speed atomic force microscopy.
The target of test [1] is MotS_(D30A) (B. subtilis). The test is described as follows: high-speed atomic force microscopy.

In the test with MotS (B. subtilis), MotS (natural protein) gave a stoichiometry N of 2.

In turn, MotS_(D30A) (natural protein) registered a percent of particles with an unfolded conformation of MotSC in test [1] of 18%.
